These are literature values, as cited in publication PMC11720126.

Data set [1] has as its target Calmodulin (Homo sapiens) (UniProt P0DP23).
Data set [2] has the same target. This is another data set of the same source.
Data set [3] shares this target. This is another data set of the same source.
For data set [4] the target is unchanged. This is another data set of the same source.

Where two headings read alike, the source gives them in different places.

On to STIM1 PBD (from UniProt Q13586), for which the Kd in data set [1] is 55 µM; in data set [2], 0.8 µM.
As to STIM2 PBD (from UniProt Q9P246), the Kd in data set [3] was 150 µM; in data set [4], 0.9 µM.
